This assay has as its target EGFP (UniProt P42212 1-238 = GFP). Nature of the assay: Biacore (SPR). (In general: In SPR one partner is held on a chip, and binding of the other changes the refractive index at the surface.)

B1: GBP6 nanobody alone (VHH)
VHH: QVQLQESGGGSVQTGGSLRLSCAVSPYIGSRISLGWFRQAPGKVREGVALINSRDGSTYYADTVKGRFTISQGDANTVYLQMNSLKPEDTAIYYCAARWGQITDIQALAVASFPDWGQGTQVTVSS
notes: also called GPB6
For B1, the Kd (commonly the equilibrium constant for the complex coming apart) came to 2.26 nM.

The values are drawn from patent US20190202908A1 (Harvard, published 2019).
